Source: patent US7189837 (NEUROTECH S A, dated 2007)

How the values were obtained:
[1] = target: hTR-FcΔH (human transferrin receptor residues 1-97 fused to CH1 and hinge deleted human IgG1 heavy chain constant region), expressed on BHK cells (human); assay: cell ELISA on BHK-FcΔH cells, goat anti-human IgG Fc alkaline phosphatase conjugate 1:1000, PNPP substrate
[2] = target: T1, human FcγRI on interferon-γ-treated U937 cells (human, UniProt P12314 16-374); assay: inferred from Fc receptor-mediated superoxide production in U937 cells
T1 construct: whole, on cells; also called FcγR1; CD64
Protocol: To assess whether cell surface expression of reverse Fc was biologically active in terms of Fc receptor binding and complement fixation, Fc receptor-mediated superoxide production in the human monocyte-like cell line was examined. Superoxide was measured spectrophotometrically as a function of the cell's ability to reduce cytochrome c. Superoxide production was determined using the 96-well microtiter plate assay of Tao, et al., *J Leukoc Biol*, 58: 203–208 (1995). 25,000 cells/well of either BHK-WT (control), opsonized BHK cells, or BHK-reverse Fc clones were added to the assay plate containing either human monocyte-like U937 cells (ATCC, Rockville, Md.) pre treated with recombinant human interferon-γ (R&D Systems, Minneapolis, Minn.) or lavaged mouse peritoneal macrophages. The O_2-release was measured as the superoxide dismutase (SOD) inhibitable reduction of cytochrome c at 550 nm by using a ThermoMax Plate reader (Molecular Devices, Menlo Park, Calif.). The rate of O_2-production was monitored from time 0 to […] after stimulation.

T1 sequence (P12314 16-374): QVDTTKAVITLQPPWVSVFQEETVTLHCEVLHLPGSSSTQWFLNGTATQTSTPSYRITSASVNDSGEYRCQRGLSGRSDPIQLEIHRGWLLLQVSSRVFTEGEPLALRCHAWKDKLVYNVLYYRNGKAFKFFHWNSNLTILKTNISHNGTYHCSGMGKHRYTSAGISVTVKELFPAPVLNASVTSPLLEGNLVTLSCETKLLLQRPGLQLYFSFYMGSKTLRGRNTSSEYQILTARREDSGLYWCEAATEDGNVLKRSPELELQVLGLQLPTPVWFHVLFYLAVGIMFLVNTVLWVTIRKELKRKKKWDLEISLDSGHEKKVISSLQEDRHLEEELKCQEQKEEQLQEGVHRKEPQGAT

Molecule | Cell Surface Fc (OD405) [1] | binding result [2]
Goat anti-human IgG Fc alkaline phosphatase conjugate (Sigma) (antibody) | 2.8 OD405 | –
hTR-FcΔH (human transferrin receptor residues 1-97 fused to CH1 and hinge deleted human IgG1 heavy chain constant region), expressed on BHK cells (Fc fusion, also called BHK-FcΔH; BHK-FcΔH(3)) MMDQARSAFSNLFGGEPLSYTRFSLARQVDGDNSHVEMKLAVDEEENADNNTKANVTKPKRCSGSICYGTIAVIVFFLIGFMIGYLGYCKGVEPKTEGSAPELLGGPSVFLFPPKPKDTLMISRTPEVTCVVVDVSHEDPEVKFNWYVDGVEVHNAKTKPREEQYNSTYRVVSVLTVLHQDWLNGKEYKCKVSNKALPAPIEKTISKAKGQPREPQVYTLPPSRDELTKNQVSLTCLVKGFYPSDIAVEWESNGQPENNYKTTPPVLDSDGSFFLYSKLTVDKSRWQQGNVFSCSVMHEALHNHYTQKSLSLSPGK | – | binds
